From the Immune Epitope Database (IEDB) come the findings set out here.

As a reminder, the Kd is the constant that tells how readily two partners part at equilibrium. One may read the IC50 as the concentration that gives 50% inhibition. A low value points to higher potency.

In experiment [1] the target is HLA-A*03:01. In words: IEDB peptide-MHC binding, purified MHC/competitive/radioactivity; filed as Kd, often an IC50 or EC50 that approximates it; ≥ and ≤ were set here for values at or beyond the usual limits of such assays.
Experiment [2] addresses HLA-A*11:01. The experiment is described as above.
The target of a further experiment is HLA-A*30:01. The description is as above.
For experiment [3], the target named is HLA-A*31:01. Described as above. The conditions noted are these: source organism: Vaccinia virus WR.
The next experiment has as its target HLA-A*33:01. Described as above. The settings on record: source organism: Vaccinia virus WR.
The next experiment addresses HLA-A*68:01. The description is as above. The conditions noted are these: source organism: Vaccinia virus WR.
Experiment [4] deals with HLA-A*03:01. In words: IEDB peptide-MHC binding, purified MHC/direct/fluorescence; filed as Kd, often an IC50 or EC50 that approximates it; ≥ and ≤ were set here for values at or beyond the usual limits of such assays.
Experiment [5] deals with HLA-A*31:01. Described as above.
For experiment [6], the target named is HLA-A*02:01. The experiment in a line: IEDB peptide-MHC binding, purified MHC/competitive/fluorescence; ≥ and ≤ were set here for values at or beyond the usual limits of such assays.
The target in experiment [7] is HLA-A*02:01. The experiment in a line: IEDB peptide-MHC binding, purified MHC/competitive/fluorescence; filed as Kd, often an IC50 or EC50 that approximates it; ≥ and ≤ were set here for values at or beyond the usual limits of such assays.
A further experiment deals with HLA-B*40:01. The experiment in a line: IEDB peptide-MHC binding, purified MHC/direct/fluorescence; filed as Kd, often an IC50 or EC50 that approximates it; ≥ and ≤ were set here for values at or beyond the usual limits of such assays. The settings on record: source organism: Mycobacterium tuberculosis.
Experiment [8] has as its target HLA-A*11:01. The experiment is described as above. The settings on record: source organism: SARS-CoV1.
The target of another experiment is HLA-B*15:01. Described as above.
Another experiment concerns the target HLA-B*58:01. The experiment is described as above. The conditions noted are these: source organism: SARS-CoV1.
The next experiment has as its target HLA-A*23:01. The experiment in a line: IEDB peptide-MHC binding, purified MHC/competitive/radioactivity; filed as Kd, often an IC50 or EC50 that approximates it; ≥ and ≤ were set here for values at or beyond the usual limits of such assays.
The next experiment has as its target HLA-A*24:02. The experiment is described as above.
The target in another experiment is HLA-A*01:01. The experiment is described as above.
For another experiment, the target named is HLA-A*30:02. The description is as above.
For the next experiment, the target named is HLA-A*26:01. Described as above.
[9] abbreviates: source organism: Vaccinia virus WR.
Setting [10] is: source organism: Escherichia coli.
[11] abbreviates: source organism: Zaire ebolavirus.
[12] abbreviates: source organism: Vaccinia virus Copenhagen.
Setting [13] is: source organism: Dengue virus 2 Jamaica/1409/1983.
Where [14] appears, read: source organism: Sudan ebolavirus.
[15] abbreviates: source organism: Pseudomonas aeruginosa.
[16] abbreviates: source organism: Dengue virus 4 Philippines/H241/1956.
Setting [17] is: source organism: Dengue virus 1 Brazil/97-11/1997.
The mark [18] stands for this setting: source organism: Entamoeba histolytica HM-1:IMSS.
[19] abbreviates: source organism: Dengue virus 4 Thailand/0348/1991.

Consider RVLFSIFYK, for which the Kd came out at 5.35 nM in the experiment with HLA-A*03:01 [1] (setting [9]); 53.2 nM with HLA-A*11:01 [2] (setting [9]); 118 nM with HLA-A*30:01 (setting [9]); 0.861 nM in the experiment with HLA-A*31:01 [3]; 1860 nM with HLA-A*33:01; 120 nM with HLA-A*68:01. RRNNRVFFR: the Kd with HLA-A*03:01 [4] (setting [10]) was at least 20000 nM; in the experiment with HLA-A*31:01 [5] (setting [10]) it was 17.7 nM. For the sequence MTRLPILLL, the Kd with HLA-A*30:01 (setting [9]) was 0.646 nM. Same read-out and setting: to KTSHAKVLV belongs 70.9 nM. The sequence SFFLWVIIL displayed an IC50 with HLA-A*02:01 [6] (setting [11]) of 14600 nM. In the case of TNLEYKTLC, in the experiment with HLA-A*02:01 [6] (source organism: Vaccinia virus), the IC50 is at least 773000 nM. Turning to ASLFLPKLV, the IC50 in the experiment with HLA-A*02:01 [6] (setting [11]) stood at 11900 nM. Regarding HAKSQCRPS, the Kd with HLA-A*30:01 (setting [12]) worked out at 854 nM.

Regarding CLTEYILWV, the Kd with HLA-A*02:01 [7] (setting [12]) was found to be 10.7 nM. As for GEGGVGSIL, in the experiment with HLA-B*40:01, the Kd was 33 nM.

As for VLFRLENHA, in the experiment with HLA-A*02:01 [7] (source organism: Vaccinia virus WR 65-16), the Kd was found to be 56.5 nM.

Regarding RSTPFNMLK, the dissociation constant (Kd) with HLA-A*03:01 [1] (setting [13]) was 8.05 nM; in the experiment with HLA-A*11:01 [2] (setting [13]), 14.1 nM; with HLA-A*30:01 (setting [13]), 20.4 nM. On to RSQGPFDAV, for which, in the experiment with HLA-A*02:01 [6] (setting [11]), the IC50 was at least 163000 nM. Take ASHFISNSW: the Kd is at least 53000 nM with HLA-A*11:01 [8], 11400 nM with HLA-B*15:01 (source organism: SARS-CoV1) and 72 nM with HLA-B*58:01.

TTPENITTA returned an IC50 in the experiment with HLA-A*02:01 [6] (setting [14]) of 19000 nM. For LQKVPHTRY, the Kd with HLA-A*31:01 [5] (setting [15]) stood at 17200 nM; with HLA-B*15:01 (setting [15]) it was 476 nM. As to LYPLAIPVTM, the Kd in the experiment with HLA-A*23:01 (setting [16]) stood at 336 nM; with HLA-A*24:02 (setting [16]) it was 1510 nM.

In the experiment with HLA-A*02:01 [6] (setting [11]), TEAEKQLQQ returned an IC50 of at least 338000 nM. Regarding TEQAFYTRV, the IC50 with HLA-A*02:01 [6] (setting [9]) was at least 98400 nM. The same measure, in the same setting: to FMSNGEHVP belongs 57600 nM. In the experiment with HLA-A*02:01 [7] (source organism: SARS-CoV1), GMSRIGMEV gave a Kd of 1.6 nM. In the experiment with HLA-A*02:01 [6] (setting [12]), LNGAMVEYV gave an IC50 of 29100 nM.

On to KSHAIYWDK, for which the Kd with HLA-A*30:01 (setting [9]) was 10.5 nM. With DWVPTSRTTW, the Kd was 6770 nM in the experiment with HLA-A*23:01 (setting [17]) and 886 nM in the experiment with HLA-A*24:02 (setting [17]). For LSEKEENMV, the Kd in the experiment with HLA-A*01:01 (setting [16]) stood at 6470 nM.

On to VVLTGGTGV, for which, in the experiment with HLA-A*02:01 [6] (source organism: Variola virus), the half-maximal inhibitory concentration (IC50) was 3800 nM.

For the sequence IVQYENLKY, the Kd with HLA-A*01:01 (setting [17]) was found to be 5950 nM; with HLA-A*30:02 (setting [17]), 191 nM.

In the experiment with HLA-A*02:01 [6] (setting [11]), SSTNQLRSV gave an IC50 of 48200 nM.

With KYWRQMIIK, the Kd with HLA-A*03:01 [4] (setting [18]) is at least 20000 nM; in the experiment with HLA-A*31:01 [5] (setting [18]) it was 24.9 nM. As to TGPCPGDYA, the IC50 with HLA-A*02:01 [6] (setting [14]) was found to be 34900 nM. With RGWGNGCGLF, the Kd with HLA-A*23:01 (setting [19]) amounted to 898 nM; with HLA-A*30:02 (setting [19]) it was 15.4 nM. Regarding ETTKKDLGI, the Kd with HLA-A*26:01 (setting [17]) was at least 54700 nM. In the case of GVVTKSGDY, the Kd in the experiment with HLA-A*26:01 (setting [16]) amounted to 2420 nM; with HLA-A*30:02 (setting [16]), 980 nM. LTRYALHGK: the Kd in the experiment with HLA-A*30:01 (setting [9]) was found to be 0.252 nM. With TLLQAAPTL, the IC50 with HLA-A*02:01 [6] (source organism: Mycobacterium tuberculosis) worked out at 50 nM. As to LTTPENITT, in the experiment with HLA-A*02:01 [6] (setting [14]), the IC50 was at least 157000 nM. As to SWLVHKQWFL, the Kd in the experiment with HLA-A*23:01 (setting [17]) was determined as 173 nM; in the experiment with HLA-A*24:02 (setting [17]) it was 2700 nM. As for IMAILCVPNA, the Kd in the experiment with HLA-A*30:01 (setting [13]) amounted to 45 nM. For RNRVSTPQG, the Kd with HLA-A*30:01 (setting [16]) worked out at 132 nM. As for ETLEQMQRKH, the Kd with HLA-A*26:01 (setting [17]) came to 14000 nM. Turning to AIKVLRGFK, the Kd with HLA-A*03:01 [1] (setting [17]) came out at 119 nM; with HLA-A*30:01 (setting [17]), 501 nM. As to GVVTRSGAY, the Kd with HLA-A*26:01 (setting [13]) amounted to 836 nM; with HLA-A*30:02 (setting [13]) it was 9.28 nM.
